Test results taken from patent publication US20210139548A1 (published 2021).
One block for each binder: values may come before it. *1 amine or outer side, *2 acyl side, *3 side chain or, on linkers, in order; H or OH if unused. Side-chain parts run from the residue outwards. The star is where a group is joined. C18 diacid = O=C(O)CCCCCCCCCCCCCCCCC(=O)*; γGlu = O=C(O)[C@H](CCC(=O)[*:2])N[*:1]; Isovaleryl = CC(C)CC(=O)*; AEEA = NCCOCCOCC(=O)O

Target: T1, human neuropeptide Y2 receptor (human, UniProt P49146 1-381)
T1 construct: whole, on cells; also called hNPY2 receptor; hNPY2-R
T1 sequence (looked up): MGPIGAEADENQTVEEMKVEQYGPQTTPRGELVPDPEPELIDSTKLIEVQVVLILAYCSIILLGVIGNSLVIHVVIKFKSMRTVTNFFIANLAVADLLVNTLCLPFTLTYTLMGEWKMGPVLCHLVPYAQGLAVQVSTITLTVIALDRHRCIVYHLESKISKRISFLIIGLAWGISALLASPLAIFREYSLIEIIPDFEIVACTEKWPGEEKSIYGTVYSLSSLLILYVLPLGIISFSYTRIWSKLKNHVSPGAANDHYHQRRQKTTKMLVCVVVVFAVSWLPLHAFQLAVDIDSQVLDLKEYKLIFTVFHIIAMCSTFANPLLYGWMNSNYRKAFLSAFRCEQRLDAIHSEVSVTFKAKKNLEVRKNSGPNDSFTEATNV
Experiment: radioligand competition (125I-PYY(1-36)), hNPY2R membranes
Outline: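 Commercial human Y2 receptor membranes (0.5 μg protein/well) were incubated with peptide for 2 h at room temperature in 50 mM HEPES, 5 mM MgCl₂, 1 mM CaCl₂, pH 7.4, with 0.2% ovalbumin. Bound radioligand was separated on PEI-soaked GF/C filters and counted by scintillation, and IC₅₀ came from nonlinear sigmoidal regression.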

B1: Compound 35 (peptide)
peptide: Isovaleryl-APEK([AEEA-AEEA-γGlu-C18 diacid])PEEDAAPEETQRYYVSLRHYYNWLTRQRY-NH2
SMILES: CC(C)CC(=O)N[C@@H](C)C(=O)N1CCC[C@H]1C(=O)N[C@@H](CCC(=O)O)C(=O)N[C@@H](CCCCNC(=O)COCCOCCNC(=O)COCCOCCNC(=O)CC[C@H](NC(=O)CCCCCCCCCCCCCCCCC(=O)O)C(=O)O)C(=O)N1CCC[C@H]1C(=O)N[C@@H](CCC(=O)O)C(=O)N[C@@H](CCC(=O)O)C(=O)N[C@@H](CC(=O)O)C(=O)N[C@@H](C)C(=O)N[C@@H](C)C(=O)N1CCC[C@H]1C(=O)N[C@@H](CCC(=O)O)C(=O)N[C@@H](CCC(=O)O)C(=O)N[C@H](C(=O)N[C@@H](CCC(N)=O)C(=O)N[C@@H](CCCNC(=N)N)C(=O)N[C@@H](Cc1ccc(O)cc1)C(=O)N[C@@H](Cc1ccc(O)cc1)C(=O)N[C@H](C(=O)N[C@@H](CO)C(=O)N[C@@H](CC(C)C)C(=O)N[C@@H](CCCNC(=N)N)C(=O)N[C@@H](Cc1c[nH]cn1)C(=O)N[C@@H](Cc1ccc(O)cc1)C(=O)N[C@@H](Cc1ccc(O)cc1)C(=O)N[C@@H](CC(N)=O)C(=O)N[C@@H](Cc1c[nH]c2ccccc12)C(=O)N[C@@H](CC(C)C)C(=O)N[C@H](C(=O)N[C@@H](CCCNC(=N)N)C(=O)N[C@@H](CCC(N)=O)C(=O)N[C@@H](CCCNC(=N)N)C(=O)N[C@@H](Cc1ccc(O)cc1)C(N)=O)[C@@H](C)O)C(C)C)[C@@H](C)O
Ki: 1.21 nM

B3: Compound 43 (peptide)
peptide: Isovaleryl-APEK([AEEA-AEEA-γGlu-C18 diacid])PEAPASPEELQRYYVSLRHYYNWLTRQRY-NH2
SMILES: CC(C)CC(=O)N[C@@H](C)C(=O)N1CCC[C@H]1C(=O)N[C@@H](CCC(=O)O)C(=O)N[C@@H](CCCCNC(=O)COCCOCCNC(=O)COCCOCCNC(=O)CC[C@H](NC(=O)CCCCCCCCCCCCCCCCC(=O)O)C(=O)O)C(=O)N1CCC[C@H]1C(=O)N[C@@H](CCC(=O)O)C(=O)N[C@@H](C)C(=O)N1CCC[C@H]1C(=O)N[C@@H](C)C(=O)N[C@@H](CO)C(=O)N1CCC[C@H]1C(=O)N[C@@H](CCC(=O)O)C(=O)N[C@@H](CCC(=O)O)C(=O)N[C@@H](CC(C)C)C(=O)N[C@@H](CCC(N)=O)C(=O)N[C@@H](CCCNC(=N)N)C(=O)N[C@@H](Cc1ccc(O)cc1)C(=O)N[C@@H](Cc1ccc(O)cc1)C(=O)N[C@H](C(=O)N[C@@H](CO)C(=O)N[C@@H](CC(C)C)C(=O)N[C@@H](CCCNC(=N)N)C(=O)N[C@@H](Cc1c[nH]cn1)C(=O)N[C@@H](Cc1ccc(O)cc1)C(=O)N[C@@H](Cc1ccc(O)cc1)C(=O)N[C@@H](CC(N)=O)C(=O)N[C@@H](Cc1c[nH]c2ccccc12)C(=O)N[C@@H](CC(C)C)C(=O)N[C@H](C(=O)N[C@@H](CCCNC(=N)N)C(=O)N[C@@H](CCC(N)=O)C(=O)N[C@@H](CCCNC(=N)N)C(=O)N[C@@H](Cc1ccc(O)cc1)C(N)=O)[C@@H](C)O)C(C)C
Ki: 0.4 nM

B4: Compound 40 (peptide)
peptide: Isovaleryl-APEK([AEEA-AEEA-γGlu-C18 diacid])PEEDATPEETQRYYVSLRHYYNWLTRQRY-NH2
SMILES: CC(C)CC(=O)N[C@@H](C)C(=O)N1CCC[C@H]1C(=O)N[C@@H](CCC(=O)O)C(=O)N[C@@H](CCCCNC(=O)COCCOCCNC(=O)COCCOCCNC(=O)CC[C@H](NC(=O)CCCCCCCCCCCCCCCCC(=O)O)C(=O)O)C(=O)N1CCC[C@H]1C(=O)N[C@@H](CCC(=O)O)C(=O)N[C@@H](CCC(=O)O)C(=O)N[C@@H](CC(=O)O)C(=O)N[C@@H](C)C(=O)N[C@H](C(=O)N1CCC[C@H]1C(=O)N[C@@H](CCC(=O)O)C(=O)N[C@@H](CCC(=O)O)C(=O)N[C@H](C(=O)N[C@@H](CCC(N)=O)C(=O)N[C@@H](CCCNC(=N)N)C(=O)N[C@@H](Cc1ccc(O)cc1)C(=O)N[C@@H](Cc1ccc(O)cc1)C(=O)N[C@H](C(=O)N[C@@H](CO)C(=O)N[C@@H](CC(C)C)C(=O)N[C@@H](CCCNC(=N)N)C(=O)N[C@@H](Cc1c[nH]cn1)C(=O)N[C@@H](Cc1ccc(O)cc1)C(=O)N[C@@H](Cc1ccc(O)cc1)C(=O)N[C@@H](CC(N)=O)C(=O)N[C@@H](Cc1c[nH]c2ccccc12)C(=O)N[C@@H](CC(C)C)C(=O)N[C@H](C(=O)N[C@@H](CCCNC(=N)N)C(=O)N[C@@H](CCC(N)=O)C(=O)N[C@@H](CCCNC(=N)N)C(=O)N[C@@H](Cc1ccc(O)cc1)C(N)=O)[C@@H](C)O)C(C)C)[C@@H](C)O)[C@@H](C)O
Ki: 1.21 nM

More lines, now with the values ahead:

Ki: 4.85 nM
B2: Compound 37 (peptide)
peptide: Isovaleryl-APEK([AEEA-AEEA-γGlu-C18 diacid])PEEDASPEETQRYEVSLRHYYNWLTRQRY-NH2
SMILES: CC(C)CC(=O)N[C@@H](C)C(=O)N1CCC[C@H]1C(=O)N[C@@H](CCC(=O)O)C(=O)N[C@@H](CCCCNC(=O)COCCOCCNC(=O)COCCOCCNC(=O)CC[C@H](NC(=O)CCCCCCCCCCCCCCCCC(=O)O)C(=O)O)C(=O)N1CCC[C@H]1C(=O)N[C@@H](CCC(=O)O)C(=O)N[C@@H](CCC(=O)O)C(=O)N[C@@H](CC(=O)O)C(=O)N[C@@H](C)C(=O)N[C@@H](CO)C(=O)N1CCC[C@H]1C(=O)N[C@@H](CCC(=O)O)C(=O)N[C@@H](CCC(=O)O)C(=O)N[C@H](C(=O)N[C@@H](CCC(N)=O)C(=O)N[C@@H](CCCNC(=N)N)C(=O)N[C@@H](Cc1ccc(O)cc1)C(=O)N[C@@H](CCC(=O)O)C(=O)N[C@H](C(=O)N[C@@H](CO)C(=O)N[C@@H](CC(C)C)C(=O)N[C@@H](CCCNC(=N)N)C(=O)N[C@@H](Cc1c[nH]cn1)C(=O)N[C@@H](Cc1ccc(O)cc1)C(=O)N[C@@H](Cc1ccc(O)cc1)C(=O)N[C@@H](CC(N)=O)C(=O)N[C@@H](Cc1c[nH]c2ccccc12)C(=O)N[C@@H](CC(C)C)C(=O)N[C@H](C(=O)N[C@@H](CCCNC(=N)N)C(=O)N[C@@H](CCC(N)=O)C(=O)N[C@@H](CCCNC(=N)N)C(=O)N[C@@H](Cc1ccc(O)cc1)C(N)=O)[C@@H](C)O)C(C)C)[C@@H](C)O

Ki: 10.6 nM
B5: Compound 36 (peptide)
peptide: Isovaleryl-APEK([AEEA-AEEA-γGlu-C18 diacid])AEEDAEPEELQRYYVSLRHYYNWLTRQRY-NH2
SMILES: CC(C)CC(=O)N[C@@H](C)C(=O)N1CCC[C@H]1C(=O)N[C@@H](CCC(=O)O)C(=O)N[C@@H](CCCCNC(=O)COCCOCCNC(=O)COCCOCCNC(=O)CC[C@H](NC(=O)CCCCCCCCCCCCCCCCC(=O)O)C(=O)O)C(=O)N[C@@H](C)C(=O)N[C@@H](CCC(=O)O)C(=O)N[C@@H](CCC(=O)O)C(=O)N[C@@H](CC(=O)O)C(=O)N[C@@H](C)C(=O)N[C@@H](CCC(=O)O)C(=O)N1CCC[C@H]1C(=O)N[C@@H](CCC(=O)O)C(=O)N[C@@H](CCC(=O)O)C(=O)N[C@@H](CC(C)C)C(=O)N[C@@H](CCC(N)=O)C(=O)N[C@@H](CCCNC(=N)N)C(=O)N[C@@H](Cc1ccc(O)cc1)C(=O)N[C@@H](Cc1ccc(O)cc1)C(=O)N[C@H](C(=O)N[C@@H](CO)C(=O)N[C@@H](CC(C)C)C(=O)N[C@@H](CCCNC(=N)N)C(=O)N[C@@H](Cc1c[nH]cn1)C(=O)N[C@@H](Cc1ccc(O)cc1)C(=O)N[C@@H](Cc1ccc(O)cc1)C(=O)N[C@@H](CC(N)=O)C(=O)N[C@@H](Cc1c[nH]c2ccccc12)C(=O)N[C@@H](CC(C)C)C(=O)N[C@H](C(=O)N[C@@H](CCCNC(=N)N)C(=O)N[C@@H](CCC(N)=O)C(=O)N[C@@H](CCCNC(=N)N)C(=O)N[C@@H](Cc1ccc(O)cc1)C(N)=O)[C@@H](C)O)C(C)C

Ki: 5.92 nM
B6: Compound 42 (peptide)
peptide: Isovaleryl-APEK([AEEA-AEEA-γGlu-C18 diacid])PEEAASPEELQRYYVSTRHYYNWLTRQRY-NH2
SMILES: CC(C)CC(=O)N[C@@H](C)C(=O)N1CCC[C@H]1C(=O)N[C@@H](CCC(=O)O)C(=O)N[C@@H](CCCCNC(=O)COCCOCCNC(=O)COCCOCCNC(=O)CC[C@H](NC(=O)CCCCCCCCCCCCCCCCC(=O)O)C(=O)O)C(=O)N1CCC[C@H]1C(=O)N[C@@H](CCC(=O)O)C(=O)N[C@@H](CCC(=O)O)C(=O)N[C@@H](C)C(=O)N[C@@H](C)C(=O)N[C@@H](CO)C(=O)N1CCC[C@H]1C(=O)N[C@@H](CCC(=O)O)C(=O)N[C@@H](CCC(=O)O)C(=O)N[C@@H](CC(C)C)C(=O)N[C@@H](CCC(N)=O)C(=O)N[C@@H](CCCNC(=N)N)C(=O)N[C@@H](Cc1ccc(O)cc1)C(=O)N[C@@H](Cc1ccc(O)cc1)C(=O)N[C@H](C(=O)N[C@@H](CO)C(=O)N[C@H](C(=O)N[C@@H](CCCNC(=N)N)C(=O)N[C@@H](Cc1c[nH]cn1)C(=O)N[C@@H](Cc1ccc(O)cc1)C(=O)N[C@@H](Cc1ccc(O)cc1)C(=O)N[C@@H](CC(N)=O)C(=O)N[C@@H](Cc1c[nH]c2ccccc12)C(=O)N[C@@H](CC(C)C)C(=O)N[C@H](C(=O)N[C@@H](CCCNC(=N)N)C(=O)N[C@@H](CCC(N)=O)C(=O)N[C@@H](CCCNC(=N)N)C(=O)N[C@@H](Cc1ccc(O)cc1)C(N)=O)[C@@H](C)O)[C@@H](C)O)C(C)C
